# Test results published in the supplement of paper PMC9170038.
# System: MS2 coat protein
# Experiment: apparent KD of MS2 coat protein; higher = weaker reporter binding
# Conditions: Eterna round: R107; input ligand: theophylline 2 mM
# Protocol: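 RNA-MaP round R107: designed RNA switches with theophylline, tryptophan, arginine or FMN aptamers are transcribed on-chip within common flanks. They are titrated with SNAP-549-labelled MS2 coat protein in RNA-MaP buffer (100 mM Tris pH 7.5, 80 mM KCl, 4 mM MgCl2), without ligand or with the indicated ligand. Median apparent KD per design.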
row,Sequence,apparent KD of MS2 coat protein [nM]
1,ACAUGAGGAUCACCCAUGUAAUUUACAGAAGGAGCGUGAUGGAUCACAGGUAGGUCGCUGUACUGCGAAAGCACUCUCAUGAAUA [JR_Nu_SSArginiA_Sub025],19.7
2,GCUGUACCAUGAAGGAGCGUCAUGGAUUGCGAAUACACAUGAGGAUCACCCAUGUUUUUAUGACAGGUAGGUCGCAUGGUACAGC [#01 Same State - Arginine B],19.2
3,ACAUGAGGAUCACCCAUGUAUUACCGGGAAGGAGCGCGUAAGGACGCAGGUAGGUCGCUCGGCGUCUGGCCGCAAGGCUGGACGA [#1 Same State - Arginine A Attempt #18 (HarryS)],15.2
4,UCGUUUUAGUCGGCCGCCACUGGUCUCAUGUUCAACAUGAGGAUCACCCAUGUAUCUUAUUUUAACAGGACCGGGACGUAAUAGA [#16 Exclusion Tryptophan B],140
5,CAUUGUUAGACGGCCGCCACUUUUGGUUCGGAACGAUCGAUUGGACAUGAGGAUCACCCAUGUGGAAGGACCGGGUCUAAUCAAA [theeternabot_sameState_MS2_Trp_B_20],265
6,AAGUGGCACGGAAGGAGCGAGUUUGCCUAUUACAUGAGGAUCACCCAUGUGGGUAAUGGGACUCAGGUAGGUCGCCGUUGUCACU [Same State Arginine B GF 26],42
7,AGAGAUGAACAUGAGGAUCACCCAUGUAAACGAGGACCGGUACGGCCGCCACUCGUGGGUGUAAUAGAAUAAUAAGAGAAUAAUA [Turkey 1],59.6
8,UAUCGCGCGGCGGCCGCCACUAAUGGCAGAUCUGUCGACUAACAUGAGGAUCACCCAUGUCUAACUAGGACCGGGCCCAAGUUGU [theeternabot_sameState_MS2_Trp_B_7],59
9,GGGCUUGUGGUGCGGCGUGUUCCGCUCCGUCGAGGACCGGUACGGCCGCCACUCGACAUGAGGAUCACCCAUGUGCGAGCGCGCG [#1 Exclusion - Tryptophan A Attempt #7 (HarryS)],15.4

# Same assay, conditions: Eterna round: R107; input ligand: tryptophan 2.4 mM
row,Sequence,apparent KD of MS2 coat protein [nM]
1,AGCCAUGGAAACAUGGCGGCGGCUUGAGCGCGAGGACCGGUACGGCCGCCACUCGGGCAACAUGAGGAUCACCCAUGUUCCUCAU [ETA NP+V+V2 #19],190
2,AUUAAUAGUUGUGAUACCAGACGAACAUGAGGAUCACCCAUGUAACUUAAGAGUGUUGAUGUCCCUUGGCAGCACUGUUUAGUUA [JR_SSTheophyB_Sub015],91.5
3,GGAUGCCACUAUGGAUAGCACGAUGCCGAUACCAGCUAGGAAACUAGCCCUUGGCAGCGGAACAUGAGGAUCACCCAUGUAUCCU [EThA NP+V+V2 #8],21.6
4,AUAUGAUCAUGUGAUACCAGAAAUGGUAGUCCUCGCUGGAUUACAUGAGGAUCACCCAUGUUCCCUUGGCAGCAUAUGAUCAUAU [#02 Exclusion-TheophyllineB],60.9
5,AACAUACAAUUUUAGGUGGAUAUAAGGCGGCGAGGACCGGUACGGCCGCCACUCGCGUACAUGAGGAUCACCCAUGUCUGAAGCU [Same State - Tryptophan A (Freestyle 6)],21.4
6,AGUGAUGACCGAAGGAGCGCGGGAAACAUGAGGAUCACCCAUGUACUCCUCAGUGUUAUAACGCAGGUAGGUCGCGGUUAUGGCU [X-ArgiB-ms2@26],279
7,GCAUCCUAGUCGGCCGCCACUGCGGAUCCGGUUCUAGAUCCUUAACAUGAGGAUCACCCAUGUAGCAGGACCGGGACUAGGAUGC [(Trp1)-(TM)''-(TM)'-(Ms2)-(Trp2)_Design2],295
8,AGAUUCGACACGGCCGCCACUUGUGGUGGAGGGUCUUUAGUCACACAUGAGGAUCACCCAUGUACAAGGACCGGGUGUUGAGUCU [XTryp B #23],36.3
9,GGUGAUCCGUAUCACCGGAUCACCGGUGAUACCAGCAUCGAAAGAUGCCCUUGGCAGCACCAACAUGAGGAUCACCCAUGUAAUA [(M)'-(T)'-(M)''-(T1)-(T2)-(M1)-(M2)_Design6b],143
10,AUUAUCAUGGUCAUAUAUAUAUCGUCAGAUACCAGACUAGAUAUAGUCCCUUGGCAGCUGUUACAUGAGGAUCACCCAUGUUAUA [JR_ExcTheophyA_Sub015],88.7
11,UACCGAUACGGAAGGAGCGUAGAAGUAGUACAUGAGGAUCACCCAUGUAUGGGUAAUUUCGUACAGGUAGGUCGCCGUAUCGGUA [SSAB NP+V+V2 #23],35.5
12,UCGACGAUGACCAAAGGUCAGGAGUACGUACGAGGACCGGUACGGCCGCCACUCGAGGAGUGGGACAUGAGGAUCACCCAUGUGG [#20 Exclusion Tryptophan A],37.4
13,UACAUAUGCCGAAGGAGCGCGAGAUGCAAAGCAUCAUUCCUCACAUGAGGAUCACCCAUGUCGCAGGUAGGUCGCGGCAUAUGUU [ArgBX],32.4
14,AACAGGGCUCGCACGAAGCCCUAAGGUGAUACCAGCACAUGUAAGUGCCCUUGGCAGCACGGUACAUGAGGAUCACCCAUGUAGA [Isleenen],59.4
15,UGAUGGAACGGAAGGAGCGUGUAAGAACAAGAACAUGAGGAUCACCCAUGUAUUAAUUUAACACAGGUAGGUCGCCGAGUUAUUG [11.F],15.9
16,ACAUGAGGAUCACCCAUGUAAUUUACAGAAGGAGCGUGAUGGAUCACAGGUAGGUCGCUGUACUGCGAAAGCACUCUCAUGAAUA [JR_Nu_SSArginiA_Sub025],19
17,GCUGUACCAUGAAGGAGCGUCAUGGAUUGCGAAUACACAUGAGGAUCACCCAUGUUUUUAUGACAGGUAGGUCGCAUGGUACAGC [#01 Same State - Arginine B],17.1
18,ACAUGAGGAUCACCCAUGUAUUACCGGGAAGGAGCGCGUAAGGACGCAGGUAGGUCGCUCGGCGUCUGGCCGCAAGGCUGGACGA [#1 Same State - Arginine A Attempt #18 (HarryS)],15.9
19,AGCGAUAUGCAUGAUACCAGCUACAUGAGGAUCACCCAUGUGCGUCAGUAAUGACUGUGUAGCCCUUGGCAGCAUAGAGCAUGUA [Exclusion - Theophylline B (Freestyle 12)],34.7
20,UGGUACAUGAGGAUCACCCAUGUUCCAGAUACCAGUGUCCCGCUGCACCCUUGGCAGCUGGUGGCACAUGAGGAUCACCCAUGUG [Exclusion Theophylline A GF12],15.1
21,CAUUGUUAGACGGCCGCCACUUUUGGUUCGGAACGAUCGAUUGGACAUGAGGAUCACCCAUGUGGAAGGACCGGGUCUAAUCAAA [theeternabot_sameState_MS2_Trp_B_20],134
22,AAGUGGCACGGAAGGAGCGAGUUUGCCUAUUACAUGAGGAUCACCCAUGUGGGUAAUGGGACUCAGGUAGGUCGCCGUUGUCACU [Same State Arginine B GF 26],46.3
23,GUUGCACAUGAGGAUCACCCAUGUUUGGAUACCAGUCUCUGUAAUGACCCUUGGCAGCCACCAUAGACGCUUGAGUAGAGCCUGA [theeternabot_sameState_MS2_Theo_A_21],15.5
24,AGAGAUGAACAUGAGGAUCACCCAUGUAAACGAGGACCGGUACGGCCGCCACUCGUGGGUGUAAUAGAAUAAUAAGAGAAUAAUA [Turkey 1],75.5
25,AGUAUACAUUCUGAUACCAGAGACAUGAGGAUCACCCAUGUCCGAUCGUCCUGCCUCAGACUCCCUUGGCAGCAGGAUAUGUGCU [Exclusion Theophylline B GF5],16.6
26,AAAAUAAAUAAAACGCGUAACAUGAAGGAUACCAGCCAGAAAACUGGCCCUUGGCAGCCUCUACAUGAGGAUCACCCAUGUCGCG [Mat - Same State Theophlline A - Mod of Eli - D15],332
27,GGGCUUGUGGUGCGGCGUGUUCCGCUCCGUCGAGGACCGGUACGGCCGCCACUCGACAUGAGGAUCACCCAUGUGCGAGCGCGCG [#1 Exclusion - Tryptophan A Attempt #7 (HarryS)],25.1
